The source of these data is US20090130192A1 (UNIVERSITY OF MANCHESTER, published 2009).

A value given as a limit tells only on which side of the number the result lay.

The target in experiment [1] is basic fibroblast growth factor (FGF-2). Nature of the experiment: cell-based or functional assay.
Experiment [2] addresses vascular endothelial growth factor (VEGF), isoform not stated. Nature of the experiment: cell-based or functional assay.
For experiment [3], the target named is basic fibroblast growth factor (FGF-2). Nature of the experiment: solid-phase binding assay, growth factor coated at 2 µg/ml, opticin titrated, detected with opticin-specific antibody; apparent Kd.
Experiment [4] deals with VEGF164. Described as above.
Experiment [5] addresses T1, full-length recombinant opticin (bovine (stated in Example 6 only; not …, UniProt P58874 20-321).
T1 construct: mature; also called recombinant bovine opticin; class III SLRP opticin
T1 sequence (looked up): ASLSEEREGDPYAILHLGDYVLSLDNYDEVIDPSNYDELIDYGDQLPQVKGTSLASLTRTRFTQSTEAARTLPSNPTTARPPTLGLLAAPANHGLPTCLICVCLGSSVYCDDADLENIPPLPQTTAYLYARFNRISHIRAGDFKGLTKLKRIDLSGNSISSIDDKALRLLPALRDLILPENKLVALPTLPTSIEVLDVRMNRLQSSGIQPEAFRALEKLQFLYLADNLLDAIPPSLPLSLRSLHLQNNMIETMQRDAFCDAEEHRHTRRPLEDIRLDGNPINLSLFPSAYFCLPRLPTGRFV
Nature of the experiment: solid-phase binding assay, receptor coated at 2 µg/ml, opticin titrated, detected with opticin-specific antibody; apparent Kd.

Sequence of basic fibroblast growth factor (FGF-2) (P09038 143-288): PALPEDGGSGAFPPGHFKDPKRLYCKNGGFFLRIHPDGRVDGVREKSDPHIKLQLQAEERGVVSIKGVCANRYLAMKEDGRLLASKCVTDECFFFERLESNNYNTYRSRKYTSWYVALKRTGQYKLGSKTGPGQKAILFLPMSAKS

B1: full-length recombinant opticin (protein, UniProt P58874 20-321, looked up)
chain: ASLSEEREGDPYAILHLGDYVLSLDNYDEVIDPSNYDELIDYGDQLPQVKGTSLASLTRTRFTQSTEAARTLPSNPTTARPPTLGLLAAPANHGLPTCLICVCLGSSVYCDDADLENIPPLPQTTAYLYARFNRISHIRAGDFKGLTKLKRIDLSGNSISSIDDKALRLLPALRDLILPENKLVALPTLPTSIEVLDVRMNRLQSSGIQPEAFRALEKLQFLYLADNLLDAIPPSLPLSLRSLHLQNNMIETMQRDAFCDAEEHRHTRRPLEDIRLDGNPINLSLFPSAYFCLPRLPTGRFV
B1: in experiment [1], the inhibition of FGF-2 induced BAEC proliferation is over 95%; the reduction of FGF-2-induced BAEC migration, 10 µg/ml opticin worked out at 86%; the reduction of FGF-2-induced BAEC sprouting is 73%. Moreover, in experiment [2], the inhibition of VEGF induced BAEC proliferation was over 90%; the reduction of VEGF-induced BAEC migration, 10 µg/ml opticin stood at 53%; the reduction of VEGF-induced BAEC sprouting was 70%. Further, the Kd in experiment [3] stood at 34 nM. Further, the Kd in experiment [4] amounted to 42 nM.

B2: VEGF-R1, soluble extracellular domain (receptor)
chain: SKLKDPELSLKGTQHIMQAGQTLHLQCRGEAAHKWSLPEMVSKESERLSITKSACGRNGKQFCSTLTLNTAQANHTGFYSCKYLAVPTSKKKETESAIYIFISDTGRPFVEMYSEIPEIIHMTEGRELVIPCRVTSPNITVTLKKFPLDTLIPDGKRIIWDSRKGFIISNATYKEIGLLTCEATVNGHLYKTNYLTHRQTNTIIDVQISTPRPVKLLRGHTLVLNCTATTPLNTRVQMTWSYPDEKNKRASVRRRIDQSNSHANIFYSVLTIDKMQNKDKGLYTCRVRSGPSFKSVNTSVHIYDKAFITVKHRKQQVLETVAGKRSYRLSMKVKAFPSPEVVWLKDGLPATEKSARYLTRGYSLIIKDVTEEDAGNYTILLSIKQSNVFKNLTATLIVNVKPQIYEKAVSSFPDPALYPLGSRQILTCTAYGIPQPTIKWFWHPCNHNHSEARCDFCSNNEESFILDADSNMGNRIESITQRMAIIEGKNKMASTLVVADSRISGIYICIASNKVGTVGRNISFYITDVPNGFHVNLEKMPTEGEDLKLSCTVNKFLYRDVTWILLRTVNNRTMHYSISKQKMAITKEHSITLNLTIMNVSLQDSGTYACRARNVYTGEEILQKKEITIRDQEAPYLLRNLSDHTVAISSSTTLDCHANGVPEPQITWFKNNHKIQQEPGIILGPGSSTLFIERVTEEDEGVYHCKATNQKGSVESSAYLTVQGTSDKSNLE
As for B2, the Kd in experiment [5] worked out at 21 nM.
